Measurements taken from paper PMC6709600 (Nature, 2019).

B1: full-length mGlu5, HA-FLAG-human mGlu5 (21-865) with a C-terminal hexahistidine tag (receptor)
chain: QSSERRVVAHMPGDIIIGALFSVHHQPTVDKVHERKCGAVREQYGIQRVEAMLHTLERINSDPTLLPNITLGCEIRDSCWHSAVALEQSIEFIRDSLISSEEEEGLVRCVDGSSSSFRSKKPIVGVIGPGSSSVAIQVQNLLQLFNIPQIAYSATSMDLSDKTLFKYFMRVVPSDAQQARAMVDIVKRYNWTYVSAVHTEGNYGESGMEAFKDMSAKEGICIAHSYKIYSNAGEQSFDKLLKKLTSHLPKARVVACFCEGMTVRGLLMAMRRLGLAGEFLLLGSDGWADRYDVTDGYQREAVGGITIKLQSPDVKWFDDYYLKLRPETNHRNPWFQEFWQHRFQCRLEGFPQENSKYNKTCNSSLTLKTHHVQDSKMGFVINAIYSMAYGLHNMQMSLCPGYAGLCDAMKPIDGRKLLESLMKTNFTGVSGDTILFDENGDSPGRYEIMNFKEMGKDYFDYINVGSWDNGELKMDDDEVWSKKSNIIRSVCSEPCEKGQIKVIRKGEVSCCWTCTPCKENEYVFDEYTCKACQLGSWPTDDLTGCDLIPVQYLRWGDPEPIAAVVFACLGLLATLFVTVVFIIYRDTPVVKSSSRELCYIILAGICLGYLCTFCLIAKPKQIYCYLQRIGIGLSPAMSYSALVTKTNRIARILAGSKKKICTKKPRFMSACAQLVIAFILICIQLGIIVALFIMEPPDIMHDYPSIREVYLICNTTNLGVVTPLGYNGLLILSCTFYAFKTRNVPANFNEAKYIAFTMYTTCIIWLAFVPIYFGSNYKIITMCFSVSLSATVALGCMFVPKVYIILAKPERNVRSAFTTSTVVRMHVGDGKSSSAASRSSSLVNL
B2: mGlu5 ECD (residues 21-569 of wild-type human metabotropic glutamate receptor subtype 5) (domain or fragment)
chain: QSSERRVVAHMPGDIIIGALFSVHHQPTVDKVHERKCGAVREQYGIQRVEAMLHTLERINSDPTLLPNITLGCEIRDSCWHSAVALEQSIEFIRDSLISSEEEEGLVRCVDGSSSSFRSKKPIVGVIGPGSSSVAIQVQNLLQLFNIPQIAYSATSMDLSDKTLFKYFMRVVPSDAQQARAMVDIVKRYNWTYVSAVHTEGNYGESGMEAFKDMSAKEGICIAHSYKIYSNAGEQSFDKLLKKLTSHLPKARVVACFCEGMTVRGLLMAMRRLGLAGEFLLLGSDGWADRYDVTDGYQREAVGGITIKLQSPDVKWFDDYYLKLRPETNHRNPWFQEFWQHRFQCRLEGFPQENSKYNKTCNSSLTLKTHHVQDSKMGFVINAIYSMAYGLHNMQMSLCPGYAGLCDAMKPIDGRKLLESLMKTNFTGVSGDTILFDENGDSPGRYEIMNFKEMGKDYFDYINVGSWDNGELKMDDDEVWSKKSNIIRSVCSEPCEKGQIKVIRKGEVSCCWTCTPCKENEYVFDEYTCKACQLGSWPTDDLTGCDLIP

Legend:
cryo-EM structure = biological target: the molecule itself; experiment: cryo-EM structure
crystal structure = biological target: the molecule itself; experiment: crystal structure

| Protein | binding result (cryo-EM structure) | binding result (crystal structure) |
| --- | --- | --- |
| B1 | binds | – |
| B2 | – | binds |
